From patent publication US20220195063A1 (BYONDIS B V, published 2022)

T1: cynomolgus SIRPα expressed on cells (cynomolgus monkey, UniProt A0A2K5VYQ9 31-507)
T1 construct: whole, on cells; also called ExpiCHO-S (cySIRPα)
T1 sequence: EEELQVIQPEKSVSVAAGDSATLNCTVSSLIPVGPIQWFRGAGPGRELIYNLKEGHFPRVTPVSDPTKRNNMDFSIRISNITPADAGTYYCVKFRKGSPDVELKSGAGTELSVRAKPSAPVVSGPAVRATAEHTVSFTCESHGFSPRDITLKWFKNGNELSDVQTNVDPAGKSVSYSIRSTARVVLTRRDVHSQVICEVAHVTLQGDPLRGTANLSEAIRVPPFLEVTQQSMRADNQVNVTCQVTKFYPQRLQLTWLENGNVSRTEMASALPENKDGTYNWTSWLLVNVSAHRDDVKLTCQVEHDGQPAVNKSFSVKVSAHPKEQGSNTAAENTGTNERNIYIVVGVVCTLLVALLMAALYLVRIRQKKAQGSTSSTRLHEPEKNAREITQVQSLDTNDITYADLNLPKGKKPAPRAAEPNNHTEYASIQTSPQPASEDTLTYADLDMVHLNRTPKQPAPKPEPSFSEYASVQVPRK

T2: cynomolgus SIRPα (cySIRPα), protein antigen (cynomolgus monkey, UniProt A0A2K5VYQ9 31-369)
T2 construct: Coated on the plate in ELISA
T2 sequence: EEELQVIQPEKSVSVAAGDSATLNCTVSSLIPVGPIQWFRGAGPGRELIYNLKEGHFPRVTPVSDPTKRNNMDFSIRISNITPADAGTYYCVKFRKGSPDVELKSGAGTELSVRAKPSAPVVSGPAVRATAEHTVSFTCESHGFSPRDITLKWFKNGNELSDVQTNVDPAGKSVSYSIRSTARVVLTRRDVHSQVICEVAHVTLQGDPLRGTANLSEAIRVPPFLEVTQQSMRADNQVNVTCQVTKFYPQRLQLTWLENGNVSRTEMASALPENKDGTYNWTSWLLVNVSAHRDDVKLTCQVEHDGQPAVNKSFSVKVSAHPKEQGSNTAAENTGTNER


Key:
[1] = target: human SIRPαBIT (huSIRPαBIT), protein antigen (human) (UniProt P78324); experiment: SPR, biotinylated antigen captured, 25 C
Chain of human SIRPαBIT (huSIRPαBIT), protein antigen (human) (P78324 31-370): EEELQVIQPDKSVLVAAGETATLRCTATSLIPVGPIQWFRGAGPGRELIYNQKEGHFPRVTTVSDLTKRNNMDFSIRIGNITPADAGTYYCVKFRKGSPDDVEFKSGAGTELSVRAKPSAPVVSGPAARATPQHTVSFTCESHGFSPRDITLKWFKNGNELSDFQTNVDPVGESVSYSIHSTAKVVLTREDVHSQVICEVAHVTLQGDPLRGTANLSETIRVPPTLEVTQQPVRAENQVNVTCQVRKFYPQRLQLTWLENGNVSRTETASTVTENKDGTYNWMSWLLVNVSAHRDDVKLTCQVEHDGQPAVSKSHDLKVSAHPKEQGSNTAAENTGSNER

[2] = target: T3, human SIRPα1 expressed on cells (human, UniProt P78324 31-504); experiment: flow cytometry, ExpiCHO-S cells
T3 construct: whole, on cells; also called ExpiCHO-S (huSIRPα1); CHO cells expressing huSIRPα1
T3 sequence (P78324 other isoform, or with tags, fused parts or gaps limits assumed): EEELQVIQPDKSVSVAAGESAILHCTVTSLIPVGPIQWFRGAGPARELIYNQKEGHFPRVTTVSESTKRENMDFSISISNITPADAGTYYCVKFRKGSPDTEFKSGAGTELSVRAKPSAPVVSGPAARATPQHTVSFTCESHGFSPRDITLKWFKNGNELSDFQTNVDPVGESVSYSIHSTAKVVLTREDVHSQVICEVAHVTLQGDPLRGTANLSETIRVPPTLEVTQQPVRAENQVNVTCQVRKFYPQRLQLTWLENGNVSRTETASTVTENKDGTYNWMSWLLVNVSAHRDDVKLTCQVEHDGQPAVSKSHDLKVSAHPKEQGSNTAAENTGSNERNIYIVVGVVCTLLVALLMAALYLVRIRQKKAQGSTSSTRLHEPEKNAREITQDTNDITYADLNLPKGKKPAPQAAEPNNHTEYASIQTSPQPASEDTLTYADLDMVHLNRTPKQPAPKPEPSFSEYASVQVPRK
Excerpt: (§1) Flow Cytometry: U937 cells endogenously expressing human SIRPαBIT antigen and cells derived from a non-engineered subclone that has been screened and isolated from CHO-S Chinese hamster ovary cells (ExpiCHO-S) cells expressing human SIRPα₁, SIRPαBIT or cySIRPα antigen (100,000 cells/well in a 96-well plate) were washed three times with ice-cold FACS buffer (1×PBS (LONZA) containing 0.2% v/w BSA (Sigma-Aldrich, St. Louis, Mo.) and 0.02% v/w NaN₃ (Sigma-Aldrich), followed by the addition of a concentration range of each primary mAb (50 μL/well) diluted in ice-cold FACS buffer. After an incubation time of 30 min at 4° C., the cells were washed three times with ice-cold FACS buffer and 50 μL/well secondary mAb (AffiniPure F(ab′)₂ fragment Goat-anti-human IgG-APC, 1:6,000 dilution, Jackson Immuno Research) was added. After 30 min at 4° C., cells were washed twice and resuspended in 150 μL FACS buffer. Fluorescence intensities were determined by flow cytometry (BD FACSVerse, Franklin Lakes, N.J.) and indicated as the median fluorescence intensity (MFI-Median) for U937 cells and ExpiCHO-S cells. Curves were fitted by nonlinear regression using the sigmoidal dose-response equation with variable slope (four parameters) in GraphPad Prism (version 7.02 for Windows, GraphPad, San Diego, Calif.). EC₅₀ values were calculated as the concentration in μg/mL that gives a response half way between bottom and top of the curve, when using a 4-parameter logistic fit.

[3] = target: T1, cynomolgus SIRPα expressed on cells; experiment: flow cytometry, ExpiCHO-S cells
Excerpt: as §1

[4] = target: human SIRPαBIT (huSIRPαBIT), protein antigen (human) (UniProt P78324); experiment: ELISA, antigen coated
[5] = target: human SIRPβ1v1 (huSIRPβ1v1) (human) (UniProt O00241); experiment: ELISA, antigen coated
Chain of human SIRPβ1v1 (huSIRPβ1v1) (human) (O00241 30-371): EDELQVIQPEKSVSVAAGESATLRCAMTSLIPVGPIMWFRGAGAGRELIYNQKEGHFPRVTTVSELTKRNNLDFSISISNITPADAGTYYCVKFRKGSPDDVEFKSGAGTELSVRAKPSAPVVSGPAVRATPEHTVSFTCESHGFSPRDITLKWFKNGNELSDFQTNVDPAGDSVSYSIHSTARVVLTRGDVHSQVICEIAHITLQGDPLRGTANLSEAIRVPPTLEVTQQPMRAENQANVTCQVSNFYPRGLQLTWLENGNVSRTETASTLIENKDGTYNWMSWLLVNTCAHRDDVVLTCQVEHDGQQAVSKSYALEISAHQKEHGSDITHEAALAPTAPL

[6] = target: T2, cynomolgus SIRPα (cySIRPα), protein …; experiment: ELISA, antigen coated
Description: (§2) ELISA assay: Solutions of huSIRPα₁, huSIRPαBIT, huSIRPβ₁ᵥ₁, huSIRPβ₁ᵥ₂, huSIRPγ and cySIRPα in phosphate buffered saline (PBS) were each added to a multiple well black polystyrene plate for ELISA and allowed to adhere for 1 h at RT. Unbound protein was removed with three washing steps using standard washing buffer. Subsequently, blocking buffer was added to the wells. After 1 h incubation at RT, the wells were washed three times with standard washing buffer. The antibodies in buffer at various concentrations were added to the wells and incubated at RT for 1 h. Unbound antibodies were removed with three washing steps using standard washing buffer. Goat anti human IgG (Fab′)₂:horse radish peroxidase (HRP) in buffer was added to the wells and incubated at RT for 1 h. 3,3′,5,5′-Tetramethylbenzidine (TMB) was added and after sufficient colour development HCl was added. Absorbance was read at 450 nm/620 nm.

[7] = target: T4, human SIRPα1 (huSIRPα1), protein antigen (human, UniProt P78324 31-370, limits assumed, biotinylated in the SPR assay); experiment: ELISA, antigen coated
T4 construct: Coated on the plate in ELISA, biotinylated and captured in SPR; also called v2
T4 sequence (P78324 other isoform, or with tags, fused parts or gaps limits assumed): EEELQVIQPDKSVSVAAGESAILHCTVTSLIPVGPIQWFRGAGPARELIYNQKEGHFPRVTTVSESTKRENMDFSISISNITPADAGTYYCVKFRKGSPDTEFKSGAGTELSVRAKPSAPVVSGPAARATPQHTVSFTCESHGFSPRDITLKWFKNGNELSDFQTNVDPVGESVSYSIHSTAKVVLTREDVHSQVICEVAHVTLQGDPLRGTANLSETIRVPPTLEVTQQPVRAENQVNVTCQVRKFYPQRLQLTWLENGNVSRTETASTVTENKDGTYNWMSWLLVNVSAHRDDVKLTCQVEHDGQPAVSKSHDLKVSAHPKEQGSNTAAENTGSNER
Description: as §2

[8] = target: T5, human SIRPβ1v2 (huSIRPβ1v2) (human, UniProt Q5TFQ8 30-371); experiment: ELISA, antigen coated
T5 construct: Coated on the plate in ELISA; Only the Ensembl protein number is printed; also called huSIRPß1v2
T5 sequence (Q5TFQ8 30-371 limits assumed): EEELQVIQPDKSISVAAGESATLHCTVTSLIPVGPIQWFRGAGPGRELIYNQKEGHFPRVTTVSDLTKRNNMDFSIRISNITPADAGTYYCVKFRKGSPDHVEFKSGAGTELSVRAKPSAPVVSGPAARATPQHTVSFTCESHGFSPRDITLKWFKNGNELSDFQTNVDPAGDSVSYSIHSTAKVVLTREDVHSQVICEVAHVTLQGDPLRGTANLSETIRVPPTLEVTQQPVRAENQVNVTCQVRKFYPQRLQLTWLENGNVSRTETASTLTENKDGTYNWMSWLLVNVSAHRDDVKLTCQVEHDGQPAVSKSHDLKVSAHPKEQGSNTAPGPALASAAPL
Description: as §2

[9] = target: T6, human SIRPγ (huSIRPγ) (human, UniProt Q9P1W8 29-360, limits assumed, biotinylated in the SPR assay); experiment: ELISA, antigen coated
T6 construct: Coated on the plate in ELISA, biotinylated and captured in SPR
T6 sequence (Q9P1W8 29-360 limits assumed): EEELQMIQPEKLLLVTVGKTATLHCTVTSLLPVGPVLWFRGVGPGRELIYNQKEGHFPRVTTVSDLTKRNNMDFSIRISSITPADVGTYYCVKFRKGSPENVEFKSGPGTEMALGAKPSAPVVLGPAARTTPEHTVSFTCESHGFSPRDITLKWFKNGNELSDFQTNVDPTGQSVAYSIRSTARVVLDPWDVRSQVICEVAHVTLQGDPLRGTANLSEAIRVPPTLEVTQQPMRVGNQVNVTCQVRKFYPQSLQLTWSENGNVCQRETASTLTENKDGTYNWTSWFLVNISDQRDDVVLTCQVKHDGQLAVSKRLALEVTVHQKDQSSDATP
Description: as §2

[10] = target: human SIRPαBIT expressed on cells (human) (UniProt P78324); experiment: flow cytometry, U937 cells
Chain of human SIRPαBIT expressed on cells (human) (P78324 31-504): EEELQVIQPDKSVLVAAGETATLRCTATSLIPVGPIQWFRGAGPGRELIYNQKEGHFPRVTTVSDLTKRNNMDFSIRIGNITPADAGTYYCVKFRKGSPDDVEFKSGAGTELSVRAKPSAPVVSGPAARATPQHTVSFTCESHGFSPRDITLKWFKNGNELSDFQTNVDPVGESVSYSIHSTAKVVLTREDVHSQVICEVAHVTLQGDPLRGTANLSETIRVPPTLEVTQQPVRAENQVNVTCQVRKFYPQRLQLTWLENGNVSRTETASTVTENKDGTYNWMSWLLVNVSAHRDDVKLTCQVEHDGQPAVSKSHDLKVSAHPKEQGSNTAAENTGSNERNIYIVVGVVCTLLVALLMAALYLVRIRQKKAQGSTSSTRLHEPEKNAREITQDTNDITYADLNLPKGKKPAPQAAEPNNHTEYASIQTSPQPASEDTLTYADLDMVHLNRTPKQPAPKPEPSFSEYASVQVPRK

[11] = target: human SIRPαBIT expressed on cells (human) (UniProt P78324); experiment: flow cytometry, ExpiCHO-S cells
[12] = target: T4, human SIRPα1 (huSIRPα1), protein antigen; experiment: SPR, biotinylated antigen captured, 25 C
Description: (§3) Surface Plasmon Resonance (SPR) assay: Affinity analysis was performed by single cycle kinetics analysis on a Surface Plasmon Resonance apparatus (Biacore T200 system, GE Life Sciences) at 25° C. Biotinylated SIRP antigens were captured on the surface of a chip suitable for biotinylated molecules (Sensor Chip CAP, GE Life Sciences) by injecting 5 μg/ml of the SIRP antigen in running buffer (10 mM HEPES buffer at pH 7.4 with 150 mM NaCl, 3 mM EDTA and 0.005% v/v polyoxyethylene (20) sorbitan monolaurate (Surfactant P20) for 60 sec at 10 μL/min after injection of a streptavidin conjugate (20× diluted biotin CAPture reagent, GE Life Sciences) for 60 sec at 10 μl/min. Baseline stabilization was set at 1 min after which five increasing concentrations of an anti-SIRP antibody in running buffer (10 mM HEPES buffer at pH 7.4 with 150 mM NaCl, 3 mM EDTA and 0.005% v/v polyoxyethylene (20) sorbitan monolaurate) were injected. For each step an association time of 150 sec was used, followed by a dissociation time of 1200 sec at the highest concentration only, all at a flow rate of 30 μL/min. Regeneration was performed with 6 M guanidine-HCl, 0.25 M NaOH solution (60 sec with flow rate of 30 μL/min). Double blank subtraction was performed on the observed sensorgrams using a non anti-SIRP (blank) immobilized reference flow channel and running buffer injection. Sensorgrams were fitted with a 1:1 Langmuir model for all tested anti-SIRP antibodies. The kinetic parameters (kₐ, kd and KD) were calculated using the Biacore T200 evaluation software (v3.1).

[13] = target: T6, human SIRPγ (huSIRPγ); experiment: SPR, biotinylated antigen captured, 25 C
Description: as §3

Kd [1] [pM] | EC50 [2] [µg/mL] | EC50 [3] [µg/mL] | EC50 [4] [µg/mL] | EC50 [5] [µg/mL] | EC50 [6] [µg/mL] | EC50 [7] [µg/mL] | EC50 [8] [µg/mL] | EC50 [9] [µg/mL] | EC50 [10] [µg/mL] | EC50 [11] [µg/mL] | Kd [12] [pM] | Kd [13] [pM] | Binder
< 10 | 0.41 | 0.18 | 0.025 | > 100 | 0.099 | 0.053 | 0.092 | > 100 | 0.12 | 0.23 | 26 | – | anti-SIRPα antibody 4 (antibody, human IgG1, kappa, L234A L235A, V domains shown, Chimeric: rabbit variable regions on human IgG1 LALA / kappa; also called chimeric antibody 4) VH: QSVEESGGRLGTPGTPLTLTCTVSGFSLSSYVMGWFRQAPGKGLEYIGIISSSGSPYYASWVNGRFTISKTSTTMDLKMNSPTTEDTATYFCARVGPLGVDYFNIWGPGTLVTVSL VL: DIVMTQTPSSVEAAVGGTVTIKCQAGQSINSYLAWYQQKPGQRPKLLIYYASTLESGVPSRFKGSGSGTDYTLTISDLESADAATYYCQSWHYISRSYAFGGGTEVVVKR
– | 0.27 | 0.26 | 0.021 | 3.52 | 0.123 | 0.031 | 0.11 | > 100 | 0.16 | 0.22 | – | – | anti-SIRPα antibody 5 (antibody, human IgG1, kappa, L234A L235A, V domains shown, Rabbit variable regions on human IgG1 LALA / kappa) VH: QSVEESGGRLVTPGTPLTLTCTVSGFSLSSYVMGWFRQAAGKGLEYIGYINADGSPYYATWVNGRFTISKTPTTMDLKINSPTTEDTATYFCARVGPLGVDYFNIWGPGTLVTVSL VL: DIVMTQTPASVEAAVGGTVTIKCQASQSINRYLTWYQQKPGQRPKLLIYYASTLESGVPSRFEGSGSGTDYTLTISDLESADAATYYCQSYYYISRTYAFGGGTEVVVKR
– | 0.19 | 0.16 | 0.027 | > 100 | 0.038 | 0.033 | 0.028 | > 100 | 0.14 | 0.27 | – | – | anti-SIRPα antibody 2 (antibody, human IgG1, kappa, L234A L235A, V domains shown, Rabbit variable regions on human IgG1 LALA / kappa) VH: QSVEESGGRLVTPGTPLTLTCTVSGFSLSNYAMHWVRQAPGKGLEWIGIIYTGGATSYATWAKGQFTISKTSTTVDLKITSPTTEDTATYFCARGDRDGYAYFNIWGPGTLVTVSL VL: QIVMTQTPFSVSAVVGGTVTIKCQASHNIGSWLAWYQQKPGQRPKLLIYDASTLASGVSSRFKGSGSGTEFTLTISGVESADAATYYCQQGYGISYVHNVFGGGTEVVVKR
– | 0.22 | 0.15 | 0.02 | > 100 | 0.026 | 0.019 | 0.019 | > 100 | 0.12 | 0.18 | – | – | anti-SIRPα antibody 8 (antibody, human IgG1, kappa, L234A L235A, V domains shown, Rabbit variable regions on human IgG1 LALA / kappa) VH: QSLEESGGRLVTPGTPLTLTCTASGVDLSNYAMGWVRQAPGKGLEWIGIIYAGGSTSYATWAKGRFTISKTSTTMDLKMTSPTTEDTATYFCARHRSDGYDYFHLWGPGTLVTVSL VL: AIDMTQTPASVSEPVGGTVTIKCQASQSISSWLAWYQQKPGQRPKLLIYDASKLASGVPSRFSGSGSGTEFTLTISGVQSDDAAAYYCQQGYAVSYVENIFGGGTEVVVKR
15 | – | – | 0.005 | 0.008 | 0.005 | 0.007 | 0.006 | 0.006 | 0.19 | – | 87 | 16 | 12C4huIgG1LALA (antibody, V domains shown, HAVT20 leader left out; also called 12C4LALA; huIgG112C4LALA) VH: EVKLEESGGGLMQPGGSMKLSCVASGFTFSNYWMNWVRQSPEKGLEWVAEIRLKSNNYATHYAESVKGRFTISRDDSKSSVYLQMNNLRAEDTGIYYCIRDYDYDAYFDYWGQGTTLTVSS VL: DIVLTQSPASLAVSLGQRATISCRASKSVSTSGYNYMYWYQQKPGQPPKLLIYLASNLESGVPARFSGSGSGTDFTLNIHPVEEEDAATYYCQHSGELPYTFGGGTKLEIKR
< 10 | – | – | – | – | – | – | – | – | 0.09 | – | 11 | < 10 | KWAR23 huIgG1LALA (antibody, V domains shown) VH: EVQLQQSGAELVKPGASVKLSCTASGFNIKDYYIHWVQQRTEQGLEWIGRIDPEDGETKYAPKFQDKATITADTSSNTAYLHLSSLTSEDTAVYYCARWGAYWGQGTLVTVSS VL: QIVLTQSPAIMSASPGEKVTLTCSASSSVSSSYLYWYQQKPGSSPKLWIYSTSNLASGVPARFSGSGSGTSYSLTISSMEAEDAASYFCHQWSSYPRTFGAGTKLELK
